We go through three compounds from patent US20130017199A1, “SIMULTANEOUS INHIBITION OF PD-L1/PD-L2” (AMPLIMMUNE ,Inc. a corporation, priority 2009, published 2013).

For test [1], the system named is CT26 colorectal tumor cells. In words: Established CT26 tumor model, eradication and rechallenge. The note with it: CTX alone, 100 mg/kg on day 10.
Test [2] deals with mouse PD-1-Ig (extracellular domain of mouse PD-1 linked to the Fc portion of mouse IgG2a) (mouse) (UniProt Q02242). In words: capture ELISA; PD-1-Ig coated on plate, COS supernatant, anti-human IgG-HRP. A general note: An ELISA detects its analyte on a solid surface through an enzyme-linked reagent.
Chain of UniProt Q02242 (Q02242 25-169): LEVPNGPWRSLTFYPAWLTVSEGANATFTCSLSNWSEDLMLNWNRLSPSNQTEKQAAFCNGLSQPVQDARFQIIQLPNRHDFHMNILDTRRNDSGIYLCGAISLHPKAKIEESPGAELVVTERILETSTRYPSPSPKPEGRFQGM

With `O=P1(N(CCCl)CCCl)NCCCO1` (stereo not drawn) [CTX, cyclophosphamide], in test [1], the “outcome of tumor bearing mice” value was “died as a result of tumor growth or were euthanized”.
On to “mouse B7-H1-Ig F67A (from UniProt Q9EP73 19-239) (Fc fusion)”, for which the Binding activity ELISA (%) in test [2] worked out at 2%.
“mouse B7-H1-Ig I115A (from UniProt Q9EP73 19-239) (Fc fusion)” came in with a Binding activity ELISA (%) in test [2] of 3%.
